Key:
[1] = cultured NSCs; settings: glycan lost; control: wild type NSCs
[2] = RNA sequencing of NSCs; settings: glycan lost; control: wild type NSCs
[3] = cultured NSCs in vitro; settings: glycan lost; control: wild type NSCs
[4] = qPCR, Western blot, immunofluorescence; settings: glycan lost; control: wild type
[5] = GFAP/lectin immunofluorescence in cortex; settings: glycan lost; control: wild type mice
[6] = DMP1 immunofluorescence intensity in brain; settings: glycan lost; control: wild type mice
[7] = RNA sequencing of primary astrocyte cultures; settings: glycan lost; control: wild type astrocytes
[8] = immunofluorescence, retrosplenial granular cortex; settings: glycan lost; control: wild type mice
[9] = spontaneous differentiation after EGF/bFGF withdrawal; settings: glycan lost; control: wild type NSCs
[10] = intraperitoneal Evans blue, leakage area in brain sections; settings: glycan lost; control: wild type mice
[11] = transmission electron microscopy, retrosplenial granular cortex; settings: glycan lost; control: wild type mice

B1: Dentin matrix protein 1 (DMP1): S89G-DMP1 (protein)
parent chain: MKTVILLVFLWGLSCALPVARYHNTESESSEERTGDLAGSPPPPTNSESSEESQASPEGQANSDHTDSSESGEELGYDRGQYRPAGGLSKSTGTGADKEDDEDDSGDDTFGDEDNDLGPEEGQWGGPSKLDSDEDSTDTTQSSEDSTSQENSAQDTPSDSKDHDSEDEADSRPEAGDSTQDSESEEQRVGGGSEGESSHGDGSEFDDEGMQSDDPESTRSDRGHARMSSAGIRSEESKGDHEPTSTQDSDDSQSVEFSSRKSFRRSHVSEEDYRGELTDSNSRETQSDSTEDTASKEESRSESQEDTAESQSQEDSPEGQDPSSESSEEAGEPSQESSSESQEGVTSESRGDNPDNTSQAGDQEDSESSEEDSLNTFSSSESQSTEEQADSESNESLSLSEESQESAQDGDSSSQEGLQSQSASTESRSQESQSEQDSRSEEDSDSQDSSRSKEESNSTGSASSSEEDIRPKNMEADSRKLIVDAYHNKPIGDQDDNDCQDGY
- other: neural stem cell apoptosis [1]: no change
- other: neural stem cell transcriptome [2]: changes
- other: neural stem cell proliferation [3]: increases
- other: AQP4 expression in astrocytes and brain [4]: decreases
- other: astrocyte end feet coverage of blood vessels [5]: decreases
- expression_or_secretion [6]: no change
- other: astrocyte transcriptome [7]: changes
- other: laminin and ZO1 expression at vasculature [8]: decreases
- other: neural stem cell differentiation [9]: no change
- other: blood-brain barrier integrity [10]: decreases
- other: astrocyte cell-cell adhesion [11]: decreases
